Assay results from article PMC12151379, “The liprin-α/RIM complex regulates the dynamic assembly of presynaptic active zones via liquid–liquid phase separation” (PLOS Biology, 2025).

Target: the molecule itself
Experiment: SEC-MALS; 100 μl sample (individual proteins or mixture, up to 500 μM) on Superdex 200 Increase 10/300 GL in TBS

B1: liprin-α2_CC2 (residues 259–542) (domain or fragment, human, UniProt O75334 259-542, looked up)
chain: GSIDSTDETSQIVELQELLEKQNYEMAQMKERLAALSSRVGEVEQEAETARKDLIKTEEMNTKYQRDIREAMAQKEDMEERITTLEKRYLSAQRESTSIHDMNDKLENELANKEAILRQMEEKNRQLQERLELAEQKLQQTMRKAETLPEVEAELAQRIAALTKAEERHGNIEERMRHLEGQLEEKNQELQRARQREKMNEEHNKRLSDTVDRLLTESNERLQLHLKERMAALEEKNVLIQESETFRKNLEESLHDKERLAEEIEKLRSELDQLKMRTGSLIEP
notes: liprin-α2, human, GenBank AF034799.1, CC2 region, residues 259–542; Dimeric by SEC-MALS at 500 μM; source: E. coli BL21(DE3), purified (Ni-NTA, SEC)
  stoichiometry N: 2
